According to patent US20230183354A1 (IMMIOS HOLDING B V, published 2023):
Substitutions are numbered along the chain they refer to.

T1: CHO.K1-rhesusCD103/beta7
T1 construct: also called CHO.K1-rhCD103/rhBeta7; CHO-K1.rhCD103/rhBeta7
T1 alpha chain (rhesus integrin Alpha-E, CD103): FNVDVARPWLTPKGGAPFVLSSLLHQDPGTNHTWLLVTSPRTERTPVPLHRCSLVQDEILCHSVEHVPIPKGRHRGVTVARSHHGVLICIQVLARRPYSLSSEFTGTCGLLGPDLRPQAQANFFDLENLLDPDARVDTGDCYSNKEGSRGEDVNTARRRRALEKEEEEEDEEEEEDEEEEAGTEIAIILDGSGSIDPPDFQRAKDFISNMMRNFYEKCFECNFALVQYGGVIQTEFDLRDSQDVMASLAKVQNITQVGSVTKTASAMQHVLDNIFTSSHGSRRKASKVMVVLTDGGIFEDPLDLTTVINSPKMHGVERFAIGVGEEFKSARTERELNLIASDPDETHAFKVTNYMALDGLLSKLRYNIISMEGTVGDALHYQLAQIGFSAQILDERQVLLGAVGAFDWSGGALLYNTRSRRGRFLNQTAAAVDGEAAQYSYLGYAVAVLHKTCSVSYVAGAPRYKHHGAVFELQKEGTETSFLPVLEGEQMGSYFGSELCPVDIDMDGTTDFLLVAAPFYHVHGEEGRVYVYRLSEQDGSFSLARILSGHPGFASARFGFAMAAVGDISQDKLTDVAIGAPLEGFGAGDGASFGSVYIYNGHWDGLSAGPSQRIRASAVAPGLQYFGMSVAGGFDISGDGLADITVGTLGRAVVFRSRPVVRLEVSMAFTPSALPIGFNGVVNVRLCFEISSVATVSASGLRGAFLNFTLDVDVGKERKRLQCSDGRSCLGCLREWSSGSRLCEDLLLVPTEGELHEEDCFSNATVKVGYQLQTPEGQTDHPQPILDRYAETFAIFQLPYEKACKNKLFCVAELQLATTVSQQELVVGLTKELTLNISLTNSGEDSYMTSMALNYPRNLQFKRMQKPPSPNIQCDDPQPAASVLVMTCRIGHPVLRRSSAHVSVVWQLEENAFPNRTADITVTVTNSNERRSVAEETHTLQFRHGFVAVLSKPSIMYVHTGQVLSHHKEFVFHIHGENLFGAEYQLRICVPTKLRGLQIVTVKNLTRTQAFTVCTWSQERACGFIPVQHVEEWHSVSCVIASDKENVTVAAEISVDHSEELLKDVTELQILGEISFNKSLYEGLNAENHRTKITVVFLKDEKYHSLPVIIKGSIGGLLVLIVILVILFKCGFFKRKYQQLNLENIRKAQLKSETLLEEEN
T1 beta chain (rhesus integrin Beta-7): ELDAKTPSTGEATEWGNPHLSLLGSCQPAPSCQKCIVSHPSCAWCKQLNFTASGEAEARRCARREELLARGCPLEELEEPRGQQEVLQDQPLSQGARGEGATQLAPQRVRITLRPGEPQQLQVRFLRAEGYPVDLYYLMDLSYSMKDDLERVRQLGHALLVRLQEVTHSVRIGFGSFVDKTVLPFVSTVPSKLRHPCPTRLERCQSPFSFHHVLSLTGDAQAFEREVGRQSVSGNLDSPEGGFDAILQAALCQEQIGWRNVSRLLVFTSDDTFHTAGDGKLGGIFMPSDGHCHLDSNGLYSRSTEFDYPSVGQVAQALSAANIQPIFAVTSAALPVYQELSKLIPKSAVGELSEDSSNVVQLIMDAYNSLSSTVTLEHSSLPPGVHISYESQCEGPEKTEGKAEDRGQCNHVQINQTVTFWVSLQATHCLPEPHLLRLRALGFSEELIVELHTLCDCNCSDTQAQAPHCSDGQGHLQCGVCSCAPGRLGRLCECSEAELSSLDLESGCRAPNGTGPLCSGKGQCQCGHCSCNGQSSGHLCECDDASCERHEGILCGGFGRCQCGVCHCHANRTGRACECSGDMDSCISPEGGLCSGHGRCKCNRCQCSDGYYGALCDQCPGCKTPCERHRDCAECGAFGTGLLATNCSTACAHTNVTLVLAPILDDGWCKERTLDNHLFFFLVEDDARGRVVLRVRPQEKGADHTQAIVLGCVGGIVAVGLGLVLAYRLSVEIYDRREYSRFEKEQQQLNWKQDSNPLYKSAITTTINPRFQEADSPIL

B1: hCD103.06A (antibody, mouse IgG1, V domains shown)
VH: QVQLQQPGSELVRPGASVKLSCKASGYTFTSYWMHWVKQRHGQGLEWIGNIYPGSGSTNYDEKFKSKGTLTVDTSSSTAYMHLSSLTSEDSAVYYCTRGVYDNPYYFDYWGQGTTLTVSS
VL: DIQMTQSSSNLSVSLGGRVTITCKASDHINNWLAWYQQKPGNAPRVLISGATSLETGVPSRFSGSGSGKDYTLSITSLQTEDVATYYCQQYWSIPLTFGAGTKLELK
notes: also called clone 06A; hCD103.06 mAb
B2: hCD103.07A (antibody, mouse IgG1, V domains shown)
VH: EVQLQESGPSLVKPSQTLSLTCSVTGDSITSGYWNWIRKFPGNKLEYMGYITYSGSTYYNPSLKSRISITRDTSKNQYYLQLNSVTTEDTATYYCARNYYGSSSMDYWGQGTSVTVSS
VL: DIVMTQSQKFMSTSVADRVSVTCKASQNVGSDVAWYQQKPGQSPKSLIYSASYRYSGVPDRFTGSGSGTDFTLTISNVQSEDLAEYFCQQYNSYPSTFGGGTKLEIK
notes: also called clone 07A
B3: hCD103.01A (antibody, V domains shown)
VH: B2 VH with A96T, N98H, S103D, S104A
VL: DIVMTQSHKFMSTSVGDRVSITCKASQDVSIAVAWYQQRPGQSPKLLIYSASYRYTGVPDRFTGSGSGTDFTFTISSVQAEDLAVYYCQQHYSTPWTFGGGTKLEIK
notes: Also tested labelled with AF647, conjugated with Df and labelled with 89Zr; these are written under this molecule; also called clone 01A; hCD103.01 mAb
B4: hCD103.05A (antibody, mouse IgG1, V domains shown)
VH: EVQLQQSGPELEKPGASAKISCKASGYSFTGYNMNWVKQSNGKSLEWIGNIDPYYGGTSYNQKFKGKATLTVDKSSSTAYMQLKSLTSEDSAVYYCARSFYGYDAGSPYNYAMDYWGQGTPVTVSP
VL: DIVMTQSHKFMSTSVGDRVSITCKASQDVGTFVAWYQQKPGQSPKLLIYWASTRHTGVPDRFTGSGSGTDFTLTISNVQSEDLADYFCHQYSSYPYTFGGGTQLEIK
notes: Also tested labelled with AF647, conjugated with Df and labelled with 89Zr; these are written under this molecule; also called clone 05A; hCD103.05 mAb

These binders were tested against T2, human CD103 (integrin Alpha-E) / human integrin Beta-7 heterodimer on cells (human, UniProt P38570 19-1179; P26010 20-798) (assay: flow cytometry competition on CD103+CD8+ T cells; pre-incubation with unlabeled 05A; table n=1).
T2 construct: the assay field tells which cells; also called hCD103/hBeta7; CHO.K1-hCD103/hBeta7
T2 sequence (P38570 19-1179 limits assumed, chain 1 of 2): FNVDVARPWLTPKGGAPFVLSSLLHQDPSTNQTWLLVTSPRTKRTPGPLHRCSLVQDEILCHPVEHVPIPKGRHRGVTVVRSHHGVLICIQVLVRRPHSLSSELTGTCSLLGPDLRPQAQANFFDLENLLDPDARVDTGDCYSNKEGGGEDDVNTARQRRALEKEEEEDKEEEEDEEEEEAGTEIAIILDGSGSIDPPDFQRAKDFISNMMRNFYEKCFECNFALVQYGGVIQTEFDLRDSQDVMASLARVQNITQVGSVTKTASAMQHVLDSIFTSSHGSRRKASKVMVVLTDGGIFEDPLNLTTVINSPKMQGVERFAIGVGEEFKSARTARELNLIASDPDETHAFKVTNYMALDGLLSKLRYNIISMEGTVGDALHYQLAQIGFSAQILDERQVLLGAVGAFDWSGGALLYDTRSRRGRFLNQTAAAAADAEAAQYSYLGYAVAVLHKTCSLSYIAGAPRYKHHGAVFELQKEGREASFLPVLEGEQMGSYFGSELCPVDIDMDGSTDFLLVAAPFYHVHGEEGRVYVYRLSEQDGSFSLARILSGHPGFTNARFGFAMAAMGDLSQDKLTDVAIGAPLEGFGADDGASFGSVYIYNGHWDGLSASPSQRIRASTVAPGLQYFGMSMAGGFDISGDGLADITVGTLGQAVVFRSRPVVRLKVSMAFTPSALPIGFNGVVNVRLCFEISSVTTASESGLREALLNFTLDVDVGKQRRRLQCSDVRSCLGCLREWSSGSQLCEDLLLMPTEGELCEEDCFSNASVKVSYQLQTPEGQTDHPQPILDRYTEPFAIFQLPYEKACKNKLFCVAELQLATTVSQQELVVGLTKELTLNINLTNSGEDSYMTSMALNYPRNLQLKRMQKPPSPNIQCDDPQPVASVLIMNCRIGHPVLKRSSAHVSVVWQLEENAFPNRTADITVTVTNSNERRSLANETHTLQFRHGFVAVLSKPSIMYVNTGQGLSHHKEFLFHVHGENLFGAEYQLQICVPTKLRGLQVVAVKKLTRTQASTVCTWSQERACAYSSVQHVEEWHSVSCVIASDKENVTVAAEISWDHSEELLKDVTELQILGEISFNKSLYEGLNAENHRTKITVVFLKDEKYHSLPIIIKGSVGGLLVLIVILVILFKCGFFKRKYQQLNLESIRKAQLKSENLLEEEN
T2 sequence (P26010 20-798 limits assumed, chain 2 of 2): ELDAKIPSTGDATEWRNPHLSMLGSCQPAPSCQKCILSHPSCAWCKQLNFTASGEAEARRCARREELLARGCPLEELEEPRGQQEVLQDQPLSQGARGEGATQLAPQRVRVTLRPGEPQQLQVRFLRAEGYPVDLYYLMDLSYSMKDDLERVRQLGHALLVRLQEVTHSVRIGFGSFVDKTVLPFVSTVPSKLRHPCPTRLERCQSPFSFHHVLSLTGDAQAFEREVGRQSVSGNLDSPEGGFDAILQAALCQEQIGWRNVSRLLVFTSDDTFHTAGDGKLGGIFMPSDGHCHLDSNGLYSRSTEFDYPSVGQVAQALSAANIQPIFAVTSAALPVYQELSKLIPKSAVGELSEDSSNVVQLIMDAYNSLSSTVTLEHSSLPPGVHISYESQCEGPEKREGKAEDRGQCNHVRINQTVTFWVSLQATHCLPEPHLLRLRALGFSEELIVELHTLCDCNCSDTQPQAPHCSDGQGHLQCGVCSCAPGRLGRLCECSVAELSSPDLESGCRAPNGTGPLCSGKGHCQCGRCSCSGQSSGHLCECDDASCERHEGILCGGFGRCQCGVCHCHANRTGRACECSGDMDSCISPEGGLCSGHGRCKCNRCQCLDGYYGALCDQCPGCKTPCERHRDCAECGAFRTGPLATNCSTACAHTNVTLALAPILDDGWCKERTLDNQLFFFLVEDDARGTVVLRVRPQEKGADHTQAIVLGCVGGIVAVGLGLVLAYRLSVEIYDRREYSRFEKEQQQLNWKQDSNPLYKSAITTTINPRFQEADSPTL
Procedure: (§1) Percentage binding of fluorescently labeled mAbs was determined using flow cytometry. Maximum binding was set at 100%.
(§2) Percentage binding of fluorescently labeled mAbs was determined using flow cytometry. Maximum binding was set at 100%

% binding of the fluorescently labeled mAb (IgG pre-incubation = 100)	Binder
101%	B1
7.9%	B2
71.8%	B3
13.1%	B4

Target: T1, CHO.K1-rhesusCD103/beta7
Assay: cell ELISA on CHO.K1-rhesusCD103/beta7 cells, abs 450-610

EC50 (read off the curve)	Binder
~0.05 µg/mL	B1
~0.02 µg/mL	B2
~0.05 µg/mL	B3

These binders were tested against T3, human integrin Alpha-4 / human integrin Beta-7 heterodimer on CHO-K1 cells (human, UniProt P13612 34-1032; P26010 20-798) (assay: cell ELISA on CHO.K1-humanAlpha4/beta7 cells, abs 450-610).
T3 construct: Used as the control for reactivity with hBeta7; also called hAlpha4/hBeta7; CHO.K1-hAlpha4/hBeta7
T3 sequence (P13612 34-1032 limits assumed, chain 1 of 2): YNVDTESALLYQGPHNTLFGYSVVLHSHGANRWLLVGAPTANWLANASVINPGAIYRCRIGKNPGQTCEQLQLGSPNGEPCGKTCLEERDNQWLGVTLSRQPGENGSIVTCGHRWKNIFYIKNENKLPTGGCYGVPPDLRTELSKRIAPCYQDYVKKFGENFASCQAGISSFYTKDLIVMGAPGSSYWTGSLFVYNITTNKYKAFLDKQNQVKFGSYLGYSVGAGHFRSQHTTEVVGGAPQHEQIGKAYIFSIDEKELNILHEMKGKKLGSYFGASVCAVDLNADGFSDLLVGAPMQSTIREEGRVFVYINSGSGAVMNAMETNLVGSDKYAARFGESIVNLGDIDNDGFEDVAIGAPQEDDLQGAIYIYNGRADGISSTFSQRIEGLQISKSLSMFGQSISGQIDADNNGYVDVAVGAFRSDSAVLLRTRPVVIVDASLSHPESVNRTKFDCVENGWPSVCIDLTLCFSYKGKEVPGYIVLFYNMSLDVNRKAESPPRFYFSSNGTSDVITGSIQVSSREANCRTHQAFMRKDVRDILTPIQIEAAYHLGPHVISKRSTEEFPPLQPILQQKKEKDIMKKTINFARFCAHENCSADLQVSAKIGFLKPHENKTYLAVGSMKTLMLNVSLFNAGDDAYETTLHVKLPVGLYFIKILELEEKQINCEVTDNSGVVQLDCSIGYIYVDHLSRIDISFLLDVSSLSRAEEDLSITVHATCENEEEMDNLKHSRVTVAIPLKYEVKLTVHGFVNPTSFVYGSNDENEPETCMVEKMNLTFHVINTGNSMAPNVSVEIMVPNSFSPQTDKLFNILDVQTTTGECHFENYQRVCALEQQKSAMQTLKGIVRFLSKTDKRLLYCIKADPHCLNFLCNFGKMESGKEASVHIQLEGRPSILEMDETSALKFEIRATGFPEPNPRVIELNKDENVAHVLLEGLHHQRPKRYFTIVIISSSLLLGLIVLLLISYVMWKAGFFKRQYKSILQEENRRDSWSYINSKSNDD
T3 sequence (P26010 20-798 limits assumed, chain 2 of 2): as the sequence (P26010 20-798 limits assumed, chain 2 of 2) above

binding result	Binder
no binding	B1
no binding	B2
no binding	B3
no binding	B4

The binders below were run against T2, human CD103 (integrin Alpha-E) / human … (assay: flow cytometry competition on CD103+CD8+ T cells; pre-incubation with unlabeled IgG (f2); table n=1).
Procedure: as §2

% binding of the fluorescently labeled mAb (IgG pre-incubation = 100)	Binder
100%	B1
100%	B2
100%	B3
100%	B4

Each binder was assayed against T2, human CD103 (integrin Alpha-E) / human … (assay: flow cytometry competition on CD103+CD8+ T cells; pre-incubation with unlabeled 07A; table n=1).
Procedure: as §2

% binding of the fluorescently labeled mAb (IgG pre-incubation = 100)	Binder
93.2%	B1
33.7%	B2
27.5%	B3
66.3%	B4

The binders below were run against T2, human CD103 (integrin Alpha-E) / human … (assay: flow cytometry competition on CD103+CD8+ T cells; pre-incubation with unlabeled BERACT; table n=2).
Procedure: as §1, §2

% binding of the fluorescently labeled mAb (IgG pre-incubation = 100)	Binder
109%	B1
1%	B2
4%	B3
4.9%	B4

Each binder was assayed against T2, human CD103 (integrin Alpha-E) / human … (assay: flow cytometry competition on CD103+CD8+ T cells; pre-incubation with unlabeled 03A; table n=1).
Procedure: as §1, §2

% binding of the fluorescently labeled mAb (IgG pre-incubation = 100)	Binder
101%	B1
94.4%	B2
96.7%	B3
100%	B4
